We go through 4 molecules from patent US20100098704A1 (CELLDEX THERAPEUTICS, published 2010).

Assay [1] deals with T1, soluble recombinant human DEC-205 fusion protein (DEC-205 extracellular domain comprising all ten … (human)).
T1 chain: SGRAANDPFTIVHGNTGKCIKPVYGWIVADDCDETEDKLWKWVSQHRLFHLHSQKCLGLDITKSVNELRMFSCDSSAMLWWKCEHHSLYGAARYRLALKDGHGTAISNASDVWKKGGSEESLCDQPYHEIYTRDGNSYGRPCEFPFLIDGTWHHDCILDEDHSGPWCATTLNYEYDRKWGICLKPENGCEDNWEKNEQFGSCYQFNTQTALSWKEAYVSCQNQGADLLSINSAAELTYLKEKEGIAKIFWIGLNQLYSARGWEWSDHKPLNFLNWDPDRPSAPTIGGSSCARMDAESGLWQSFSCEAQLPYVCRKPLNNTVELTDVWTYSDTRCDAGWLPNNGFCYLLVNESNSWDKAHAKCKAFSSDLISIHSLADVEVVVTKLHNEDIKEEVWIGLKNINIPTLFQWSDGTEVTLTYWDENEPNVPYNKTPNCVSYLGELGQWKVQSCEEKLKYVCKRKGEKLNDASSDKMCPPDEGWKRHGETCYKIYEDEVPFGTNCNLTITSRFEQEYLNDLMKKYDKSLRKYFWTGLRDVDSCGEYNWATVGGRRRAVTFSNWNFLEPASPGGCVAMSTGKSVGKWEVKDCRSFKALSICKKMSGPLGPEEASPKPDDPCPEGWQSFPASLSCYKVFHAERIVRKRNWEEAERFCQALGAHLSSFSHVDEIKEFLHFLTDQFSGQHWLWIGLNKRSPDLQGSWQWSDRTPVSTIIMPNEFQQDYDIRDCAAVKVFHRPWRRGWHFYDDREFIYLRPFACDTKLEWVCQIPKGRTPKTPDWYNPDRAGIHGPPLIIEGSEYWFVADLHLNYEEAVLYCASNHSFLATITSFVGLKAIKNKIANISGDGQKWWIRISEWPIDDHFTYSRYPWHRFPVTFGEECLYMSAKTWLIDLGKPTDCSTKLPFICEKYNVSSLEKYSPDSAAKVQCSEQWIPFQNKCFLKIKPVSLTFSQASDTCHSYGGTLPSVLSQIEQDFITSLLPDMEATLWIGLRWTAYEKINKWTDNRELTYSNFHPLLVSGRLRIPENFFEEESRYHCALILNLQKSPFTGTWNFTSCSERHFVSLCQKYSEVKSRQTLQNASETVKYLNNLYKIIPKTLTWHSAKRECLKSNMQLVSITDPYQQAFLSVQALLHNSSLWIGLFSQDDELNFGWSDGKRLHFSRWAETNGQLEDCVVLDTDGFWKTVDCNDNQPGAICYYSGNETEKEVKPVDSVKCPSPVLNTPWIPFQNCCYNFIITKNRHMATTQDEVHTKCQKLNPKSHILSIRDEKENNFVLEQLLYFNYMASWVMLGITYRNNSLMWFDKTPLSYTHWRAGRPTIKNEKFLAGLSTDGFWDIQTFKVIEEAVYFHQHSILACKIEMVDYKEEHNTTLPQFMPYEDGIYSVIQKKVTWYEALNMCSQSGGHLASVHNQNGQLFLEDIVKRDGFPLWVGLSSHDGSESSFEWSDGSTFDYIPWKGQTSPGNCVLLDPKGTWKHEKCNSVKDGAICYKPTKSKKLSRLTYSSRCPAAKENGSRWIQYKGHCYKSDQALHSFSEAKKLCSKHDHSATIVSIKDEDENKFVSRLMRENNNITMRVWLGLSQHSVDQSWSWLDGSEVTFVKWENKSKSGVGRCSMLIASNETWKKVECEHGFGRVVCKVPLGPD
The experiment in a line: SPR (Biacore 2000), DEC-205 fusion protein amine-coupled to CM5 chip, antibody flowed, 1:1 Langmuir fit, mean of two series. Background: SPR reads the build-up and loss of mass on a sensor chip optically.

Assay [2] deals with T2, human Dendritic and Epithelial Cell 205 receptor (DEC-205) expressed on cells (human, UniProt O60449 28-1722). The experiment in a line: flow cytometry, CHO-S cells expressing human DEC-205 against control CHO-S cells, saturating antibody, PE goat anti-human IgG Fc [A]. For orientation: In flow cytometry, cells or beads pass a laser one at a time.
In assay [3] the target is T2, human Dendritic and Epithelial Cell 205 …. The experiment in a line: flow cytometry, human monocyte-derived dendritic cells, saturating antibody, PE goat anti-human IgG Fc [D].
Assay [4] has the same target. The experiment in a line: flow cytometry, human monocyte-derived dendritic cells, saturating antibody, PE goat anti-human IgG Fc [F].
Assay [5] shares this target. The experiment in a line: flow cytometry, human monocyte-derived dendritic cells, saturating antibody, PE goat anti-human IgG Fc [C].

B1: human anti-DEC-205 monoclonal antibody 3D6-2F4 (antibody, V domains shown)
VH: QVQLVESGGGVVQPGRSLRLSCAASGFIFSIYGMHWVRQAPGKGLEWVAVIWYDGSNKYYADSVKGRFTISRDNSKNTLYLQMNSLRAEDTAVYYCARAPHFDYWGQGTLVTVSS
VL: DIQMTQSPSSLSASVGDRVTITCRASQGISSWLAWYQQKPEKAPKSLIYAASSLQSGVPSRFSGSGSGTDFTLTISSLQPEDFATYYCQQYNSYPYTFGQGTKLEIK
notes: also called mAb #5
B1: in assay [1], the Ka came to 1.5e+10 M⁻¹, the Kd (usually the equilibrium constant for the complex coming apart) was found to be 0.08 nM, the koff (usually the first-order rate constant of dissociation) came to 0.00012 s⁻¹ and the kon (usually a measure of how fast the partners come together) was determined as 1.8e+06 M⁻¹ s⁻¹. In assay [2], the binding result was “binds”.

B2: human anti-DEC-205 monoclonal antibody 5A8-1F1 (antibody, V domains shown)
VH: QVQLVESGGGVVQPGRSLRLSCAASGFTFSTYGMHWVRQAPGKGLEWVAIIWYDGGNKYYADSVKGRFTISRDNSKNTLYLQMNSLRAEDTAVYYCARDFYWYFDLWGRGTLVTVSS
VL: EIVLTQSPATLSLSPGERATLSCRASQSVSSYLAWYQQKPGQAPRLLIYDASNRATGIPARFSGSGSGTDFTLTISSLEPEDFAVYYCQQRRTFGQGTKVEIK
Take B2: the binding result in assay [3] is given as “binds”. Moreover, in assay [1], the Ka was found to be 2.1e+09 M⁻¹, the Kd was found to be 1.5 nM, the koff turned out to be 0.0002 s⁻¹ and the kon was 360000 M⁻¹ s⁻¹.

B3: human anti-DEC-205 monoclonal antibody 3C7-3A3 (antibody, V domains shown)
VH: QVQLVESGGGVVQPGRSLRLSCAASGFTFSSYNMHWVRQAPGKGLEWVAFIWYDGSNKYYGDSVKGRFTISRDNSKNTLYLQMNSLRAEDTAVYYCAREELGIGWYFDLWGRGTLVTVSS
VL: EIVLTQSPATLSLSPGERATLSCRASQSVSSYLAWYQQKPGQAPRLLIYDASNRATGIPARFSGSGSGTDFTLTISSLEPEDFAVYYCQQRRTFGQGTKVEIK
As to B3, the binding result in assay [4] is on record as “binds”. For the same molecule, in assay [1], the Ka amounted to 5.2e+08 M⁻¹, the Kd was 5.6 nM, the koff turned out to be 0.00076 s⁻¹ and the kon amounted to 170000 M⁻¹ s⁻¹.

B4: human anti-DEC-205 monoclonal antibody 3G9-2D2 (antibody, V domains shown)
VH: QVQLVESGGGVVQPGRSLRLSCAASGFTFSNYGMYWVRQAPGKGLEWVAVIWYDGSNKYYADSVKGRFTISRDNSKNTLYLQMNSLRAEDTAVYYCARDLWGWYFDYWGQGTLVTVSS
VL: EIVLTQSPATLSLSPGERATLSCRASQSVSSYLAWYQQKPGQAPRLLIYDASNRATGIPARFSGSGSGTDFTLTISSLEPEDFAVYYCQQRRNWPLTFGGGTKVEIK
Take B4: the binding result in assay [5] was “binds”. In assay [1], the Ka worked out at 4.7e+09 M⁻¹, the Kd was determined as 0.24 nM, the koff amounted to 0.00019 s⁻¹ and the on-rate constant (kon) was 900000 M⁻¹ s⁻¹.
